# Reference: the RNAGym collection of RNA variant scans (doi:10.7554/elife.80360)
# B1: CPEB3 Ribozyme (parent)
# chain: GGGGGCCACAGCAGAAGCGUUCACGUCGCGGCCCCUGUCAGAUUCUGGUGAAUCUGCGAAUUCUGCUGU
# Variants of: B1
# Test: self-cleavage, relative activity (ratio to wild type); higher = more cleavage; co-transcriptional
row,Variant,self-cleavage
1,GGGGGCCACAGCAGAAGUGUUCACGUCGCGGCCCCUGUAAGAUUCUGGUGAAUCUGCGAAUUCUGCUGU [C18U C39A],0.387
2,GGGGGCCACAGCAGAAGUGUUCACGUCGCGGCCCCUGUUAGAUUCUGGUGAAUCUGCGAAUUCUGCUGU [C18U C39U],0.551
3,GGGGGCCACAGCAGAAGUGUUCACGUCACGGCCCCUGUCAGAUUCUGGUGAAUCUGCGAAUUCUGCUGU [C18U G28A],0.909
4,GGGGGCCACAGCAGAAGUGUUCACGUCGCGGCCCCUGUCAGAUUCUGGUGAAUGUGCGAAUUCUGCUGU [C18U C54G],0.456
5,GGGGGCCACAGCAGAAGUGUUCACGUCGCGGCCCCUGUCAGAUUCUGGUGAAUAUGCGAAUUCUGCUGU [C18U C54A],0.305
6,GGGGGCCACAGCAGAAGUGUUCACGUCGCGGCCCCUGUCAGAUUCUGGUGAAUUUGCGAAUUCUGCUGU [C18U C54U],0.852
7,GGGGGCCACAGCAGAAGUGUUCACGUCGCGGCCCCUGUCAGAUUCUGGUGAAUCUACGAAUUCUGCUGU [C18U G56A],0.706
8,GGGGGCCACAGCAGAAGCAUUCACGUCGCGGCCCCUGUCAGAUUCUGGUGAAUCUGCGAAUUCUGCUGU [G19A],0.167
9,GGGGGCCACAGCAGAAGUGUUCACGCCGCGGCCCCUGUCAGAUUCUGGUGAAUCUGCGAAUUCUGCUGU [C18U U26C],0.732
10,GGGGGCCACAGCAGAAGUGUUCACGGCGCGGCCCCUGUCAGAUUCUGGUGAAUCUGCGAAUUCUGCUGU [C18U U26G],0.697
11,GGGGGCCACAGCAGAAGUGUUCACGUCGCGGCCCCUAUCAGAUUCUGGUGAAUCUGCGAAUUCUGCUGU [C18U G37A],0.193
12,GGGGGCCACAGCAGAAGUGUUCACGUCGCGGCCCCUCUCAGAUUCUGGUGAAUCUGCGAAUUCUGCUGU [C18U G37C],0.13
13,GGGGGCCACAGCAGAAGUGUUCACGUCGCGGCCCCUGUCAGAUUCAGGUGAAUCUGCGAAUUCUGCUGU [C18U U46A],0.964
14,GGGGGCCACAGCAGAAGUGUUCACGUCGCGGCCCCUGUCAGAUUCGGGUGAAUCUGCGAAUUCUGCUGU [C18U U46G],0.854
15,GGGGGCCACAGCAGAAGUGUUCACGUCGCGGCCCCUGUCAGAUUCCGGUGAAUCUGCGAAUUCUGCUGU [C18U U46C],0.808
16,GGGGGCCACAGCAGAAGUGUUCACGUCGCCGCCCCUGUCAGAUUCUGGUGAAUCUGCGAAUUCUGCUGU [C18U G30C],0.222
17,GGGGGCCACAGCAGAAGUGUUCACGUCGCUGCCCCUGUCAGAUUCUGGUGAAUCUGCGAAUUCUGCUGU [C18U G30U],0.192
18,GGGGGCCACAGCAGAAGUGUACACGUCGCGGCCCCUGUCAGAUUCUGGUGAAUCUGCGAAUUCUGCUGU [C18U U21A],0.807
19,GGGGGCCACAGCAGAAGUGUCCACGUCGCGGCCCCUGUCAGAUUCUGGUGAAUCUGCGAAUUCUGCUGU [C18U U21C],0.389
20,GGGGGCCACAGCAGAAGUGUGCACGUCGCGGCCCCUGUCAGAUUCUGGUGAAUCUGCGAAUUCUGCUGU [C18U U21G],0.276
21,GGGGGCCACAGCAGAAGUGUUCACGUCGCGGCCCCUGUCAGAUUCUGGUGAAUCUGCGAAUACUGCUGU [C18U U62A],0.402
22,GGGGGCCACAGCAGAAGUGUUCACGUCGCGGCCCCUGUCAGAUUCUGGUGAAUCUGCGAAUCCUGCUGU [C18U U62C],0.572
23,GGGGGCCACAGCAGAAGUGUUCACGUCGCGGCCCCUGUCAGAUUCUGGUGAAUCUGGGAAUUCUGCUGU [C18U C57G],0.271
24,GGGGGCCACAGCAGAAGUGUUCACGUCGCGGCCCCUGUCAGAUUCUGGUGAAUCUGAGAAUUCUGCUGU [C18U C57A],0.24
25,GGGGGCCACAGCAGAAGUGUUCACGUCGCGGCCCCUGUCAGAUUCUGGUGAAUCUGCGAAUUCUGCUAU [C18U G68A],0.948
26,GGGGGCCACAGCAGAAGUGUUCACGUCGCGGCCCCUGUCAGAUUCUGGUGAAUCUGCGAAUUCUGCUUU [C18U G68U],0.943

row,Variant,self-cleavage
1,GGGGGCCACAGCAGAAGUGUUCACGUCGCGGCCCCUGUCAGAUUCUGGUGAAUCUGCGAAUUCUGCUCU [C18U G68C],0.924
2,GGGGGCCACAGCAGAAGUGUUCACUUCGCGGCCCCUGUCAGAUUCUGGUGAAUCUGCGAAUUCUGCUGU [C18U G25U],0.17
3,GGGGGCCACAGCAGAAGUGUUCACCUCGCGGCCCCUGUCAGAUUCUGGUGAAUCUGCGAAUUCUGCUGU [C18U G25C],0.153
4,GGGGGCCACAGCAGAAGUGUUCACAUCGCGGCCCCUGUCAGAUUCUGGUGAAUCUGCGAAUUCUGCUGU [C18U G25A],0.157
5,GGGGGCCACAGCAGAAGUGUUCACGUCGCGGCCCCUGUCAGAUACUGGUGAAUCUGCGAAUUCUGCUGU [C18U U44A],0.727
6,GGGGGCCACAGCAGAAGUGUUCACGUCGCGGCCCCUGUCAGAUGCUGGUGAAUCUGCGAAUUCUGCUGU [C18U U44G],0.726
7,GGGGGCCACAGCAGAAGUGUUCACGUCGCGGCCCCUGUCAGAUCCUGGUGAAUCUGCGAAUUCUGCUGU [C18U U44C],0.617
8,GGGGGCCACAGCAGAAGUGUUCACGUCGCGGCCCCAGUCAGAUUCUGGUGAAUCUGCGAAUUCUGCUGU [C18U U36A],0.109
9,GGGGGCCACAGCAGAAGUGUUCACGUCGCGGCCCCCGUCAGAUUCUGGUGAAUCUGCGAAUUCUGCUGU [C18U U36C],0.562
10,GGGGGCCACAGCAGAAGUGUUCACGUCGCGGCCCCUGGCAGAUUCUGGUGAAUCUGCGAAUUCUGCUGU [C18U U38G],0.116
11,GGGGGCCACAGCAGAAGUGUUCACGUCGCGGCCCCUGACAGAUUCUGGUGAAUCUGCGAAUUCUGCUGU [C18U U38A],0.671
12,GGGGGCCACAGCAGAAGUGUUCACGUCGCGGCCCCUGCCAGAUUCUGGUGAAUCUGCGAAUUCUGCUGU [C18U U38C],0.694
13,GGGGGCCACAGCAGAAGUGUUCACGUCGCGGCCCCUGUCAGAUUCUGGUGAAUCUGCGAAUUCUGCUGG [C18U U69G],1
14,GGGGGCCACAGCAGAAGUGUUCACGUCGCGGCCCCUGUCAGAUUCUGGUGAAUCUGCGAAUUCUGCUGC [C18U U69C],1.04
15,GGGGGCCACAGCAGAAGUGUUCACGUCGCGGCCCCUGUCAGAUUCUGGUGAAUCCGCGAAUUCUGCUGU [C18U U55C],0.446
16,GGGGGCCACAGCAGAAGUGUUCACGUCGCGGCCCCUGUCAGAUUCUGGUGAAUCAGCGAAUUCUGCUGU [C18U U55A],0.447
17,GGGGGCCACAGCAGAAGUGUUCACGUCGCGUCCCCUGUCAGAUUCUGGUGAAUCUGCGAAUUCUGCUGU [C18U G31U],0.295
18,GGGGGCCACAGCAGAAGUGUUCACGUCGCGACCCCUGUCAGAUUCUGGUGAAUCUGCGAAUUCUGCUGU [C18U G31A],0.313
19,GGGGGCCACAGCAGAAGUGUUCACGUCGCGCCCCCUGUCAGAUUCUGGUGAAUCUGCGAAUUCUGCUGU [C18U G31C],0.178
20,GGGGGCCACAGCAGAAGUGUUCACGUCGCGGCCCCUGUCAGAGUCUGGUGAAUCUGCGAAUUCUGCUGU [C18U U43G],0.357
21,GGGGGCCACAGCAGAAGUGUUCACGUCGCGGCCCCUGUCAGACUCUGGUGAAUCUGCGAAUUCUGCUGU [C18U U43C],0.768
22,GGGGGCCACAGCAGAAGUGCUCACGUCGCGGCCCCUGUCAGAUUCUGGUGAAUCUGCGAAUUCUGCUGU [C18U U20C],0.135
23,GGGGGCCACAGCAGAAGUGAUCACGUCGCGGCCCCUGUCAGAUUCUGGUGAAUCUGCGAAUUCUGCUGU [C18U U20A],0.108
24,GGGGGCCACAGCAGAAGUGUUCACGUCGCGGCCCCUGUCAGAUUCUGGUGAAUCUGCGAAUUCGGCUGU [C18U U64G],0.43
25,GGGGGCCACAGCAGAAGUGUUCACGUCGCGGCCCCUGUCAGAUUCUAGUGAAUCUGCGAAUUCUGCUGU [C18U G47A],0.975
26,GGGGGCCACAGCAGAAGUGUUCACGUCGCGGCCCCUGUCAGAUUCUUGUGAAUCUGCGAAUUCUGCUGU [C18U G47U],0.928

row,Variant,self-cleavage
1,GGGGGCCACAGCAGAAGUGUUCACGUCGCGGCCCCUGUCAGAUUCUCGUGAAUCUGCGAAUUCUGCUGU [C18U G47C],0.911
2,GGGGGCCACAGCAGAAGUGUUCACGUCGCGGCCCGUGUCAGAUUCUGGUGAAUCUGCGAAUUCUGCUGU [C18U C35G],0.281
3,GGGGGCCACAGCAGAAGUGUUCACGUCGCGGCCCCUGUCAGAUUAUGGUGAAUCUGCGAAUUCUGCUGU [C18U C45A],0.792
4,GGGGGCCACAGCAGAAGUGUUCACGUCGCGGCCCCUGUCAGAUUCUGGGGAAUCUGCGAAUUCUGCUGU [C18U U49G],0.894
5,GGGGGCCACAGCAGAAGUGUUCACGUCGCGGCCCCUGUCAGAUUCUGGUGAAUCUGCGAAUUCUGCCGU [C18U U67C],0.802
6,GGGGGCCACAGCAGAAGUGUUCACGUCGCGGCCCCUGUCAGAUUCUGGUGAAUCUGCGAAUUCUGCAGU [C18U U67A],0.862
7,GGGGGCCACAGCAGAAGUCUUCACGUCGCGGCCCCUGUCAGAUUCUGGUGAAUCUGCGAAUUCUGCUGU [C18U G19C],0.168
8,GGGGGCCACAGCAGAAGUUUUCACGUCGCGGCCCCUGUCAGAUUCUGGUGAAUCUGCGAAUUCUGCUGU [C18U G19U],0.142
9,GGGGGCCACAGCAGAAGUGUUCACGUCGCGGCCCCUGUCAGAUUCUGGUGAAUCUGCGAAUUCUGUUGU [C18U C66U],0.704
10,GGGGGCCACAGCAGAAGUGUUCACGUCGCGGCCCCUGUCAGAUUCUGGUGAAUCUGCGAAUUCUGAUGU [C18U C66A],0.297
11,GGGGGCCACAGCAGAAGUGUUCACGUCGCGGCCCCUGUCAGAUUCUGGUGAACCUGCGAAUUCUGCUGU [C18U U53C],0.47
12,GGGGGCCACAGCAGAAGUGUUCACGUCGCGGCCCCUGUCAGAUUCUGGUGAAUCUGCGAAUUAUGCUGU [C18U C63A],0.284
13,GGGGGCCACAGCAGAAGUGUUCACGUCGCGGCCCCUGUCAGAUUCUGGUGAAUCUGCGAAUUGUGCUGU [C18U C63G],0.306
14,GGGGGCCACAGCAGAAGUGUUCACGUCGCGGCCCCUGUCAGAUUCUGGUGAAUCUGCGAAUUUUGCUGU [C18U C63U],0.678
15,GGGGGCCACAGCAGAAGUGUUCACGUCGCGGCCCCUGUCAGAUUCUGGUAAAUCUGCGAAUUCUGCUGU [C18U G50A],0.906
16,GGGGGCCACAGCAGAAGUGUUCACGUCGCGGCCCCUGUCAGAUUCUGGUGAAUCUGCGAACUCUGCUGU [C18U U61C],0.267
17,GGGGGCCACAGCAGAAGUGUUCACGUCGCGGCCCCUGUCAGAUUCUGGUGAAUCUGCGAAGUCUGCUGU [C18U U61G],0.312
18,GGGGGCCACAGCAGAAGUGUUCACGUCGCGGCCCCUGUCAGAUUCUGGUGAAUCUGCGAAAUCUGCUGU [C18U U61A],0.467
19,GGGGGCCACAGCAGAAGCAUUCGCGUCGCGGCCCCUGUCAGAUUCUGGUGAAUCUGCGAAUUCUGCUGU [G19A A23G],0.131
20,GGGGGCCACAGCAGAAGCAUUCCCGUCGCGGCCCCUGUCAGAUUCUGGUGAAUCUGCGAAUUCUGCUGU [G19A A23C],0.25
21,GGGGGCCACAGCAGAAGUGUUCACGUCGCGGCCCCUGUCAGAUUCUGGUGAAUCUGCGAAUUCUACUGU [C18U G65A],0.332
22,GGGGGCCACAGCAGAAGUGUUCACGUCGCGGCCCCUGUCAGAUUCUGGUGAAUCUGCGAAUUCUCCUGU [C18U G65C],0.363
23,GGGGGCCACAGCAGAAGUGUUCACGUCGCGGCCCCUGUCAGAUUCUGCUGAAUCUGCGAAUUCUGCUGU [C18U G48C],0.903
24,GGGGGCCACAGCAGAAGUGUUCACGUCGCGGCCCCUGUCAGAUUCUGUUGAAUCUGCGAAUUCUGCUGU [C18U G48U],0.934
25,GGGGGCCACAGCAGAAGUGUUCACGUCGCGGCCCCUGUCAGAUUCUGGUGAAUCUGCUAAUUCUGCUGU [C18U G58U],0.942
26,GGGGGCCACAGCAGAAGUGUUCACGUCGCGGCCCCUGUCAGAUUCUGGUGAAUCUGCAAAUUCUGCUGU [C18U G58A],0.801
